Results reported in US20210221878A1 (Bristol-Myers Squibb, published 2021).
Changes are numbered by the printed parent chain. In names and notes the source's numbering stands. Read-outs that look alike come from different tables or passages of the source. Values belong to the binder of their own block, whether it stands above or below them. Primed or numbered codes have the meaning given here. * marks the point of attachment. Biotin = O=C1N[C@H]2[C@H](CS[C@H]2CCCCC(=O)*)N1; PEG4′ = not defined here

Experiments:
[1] = target: mouse αSyn 111-140 peptide (mouse, C-terminal amide (NH2)); test: solution competition ELISA, free antibody captured on PFF plate; column Mouse 111-140 (nM)
rat αSyn 111-140 peptide = rat αSyn 111-140 peptide (rat, C-terminal amide (NH2)); test: solution competition ELISA, free antibody captured on PFF plate; column Rat 111-140 (nM)
[2] = target: T1, full-length human recombinant wild-type γ-synuclein monomer (human, UniProt O76070 1-127); test: competition ELISA: antibody pre-incubated with titrated synuclein species in solution; unbound antibody captured on WT PFF-coated plate (CPS)
T1 construct: mature; also called human γSyn monomer

[3] = target: T2, full-length human recombinant wild-type β-synuclein monomer (human, UniProt Q16143 1-134); test: as above
T2 construct: mature; also called human βSyn monomer

[4] = target: T3, α-synuclein inducing species in brain lysates of MSA patients (12-18, 01-03, 04-51) (human, UniProt P37840 1-140); test: cell-based or functional assay
[5] = target: T3, α-synuclein inducing species in brain …; test: cell-based or functional assay; remark: listed apart in the source
[6] = target: PFF used as inducer in the immunodepletion assay of Example 10 (human, UniProt P37840 1-140); test: cell-based or functional assay
[7] = target: T3, α-synuclein inducing species in brain …; test: cell-based or functional assay; remark: listed apart in the source
119-129 = target: T4, 119-129; test: 1-sided ELISA on plate-bound biotinylated peptide, luminescence (CPS)
T4 peptide: {Biotin-PEG4′}-DPDNEAYEMPS-NH2

122-132 = target: T5, 122-132; test: as above
T5 construct: also called alphaSyn 122-132
T5 peptide: {Biotin-PEG4′}-NEAYEMPSEEG-NH2

130-140 = target: T6, 130-140; test: as above
T6 construct: also called alphaSyn 130-140
T6 peptide: {Biotin-PEG4′}-EEGYQDYEPEA-NH2

120-130 = target: T7, 120-130; test: as above
T7 construct: also called alphaSyn 120-130
T7 peptide: {Biotin-PEG4′}-PDNEAYEMPSE-NH2

123-133 = target: T8, 123-133; test: as above
T8 peptide: {Biotin-PEG4′}-EAYEMPSEEGY-NH2

129-139 = target: T9, 129-139; test: as above
T9 peptide: {Biotin-PEG4′}-SEEGYQDYEPE-NH2

128-138 = target: T10, 128-138; test: as above
T10 peptide: {Biotin-PEG4′}-PSEEGYQDYEP-NH2

117-127 = target: T11, 117-127; test: as above
T11 construct: also called alphaSyn 117-127
T11 peptide: {Biotin-PEG4′}-PVDPDNEAYEM-NH2

116-126 = target: T12, 116-126; test: as above
T12 construct: also called alphaSyn 116-126
T12 peptide: {Biotin-PEG4′}-MPVDPDNEAYE-NH2

121-131 = target: T13, 121-131; test: as above
T13 construct: also called alphaSyn 121-131
T13 peptide: {Biotin-PEG4′}-DNEAYEMPSEE-NH2

124-134 = target: T14, 124-134; test: as above
T14 construct: also called alphaSyn 124-134
T14 peptide: {Biotin-PEG4′}-AYEMPSEEGYQ-NH2

118-128 = target: T15, 118-128; test: as above
T15 construct: also called alphaSyn 118-128
T15 peptide: {Biotin-PEG4′}-VDPDNEAYEMP-NH2

125-135 = target: T16, 125-135; test: as above
T16 peptide: {Biotin-PEG4′}-YEMPSEEGYQD-NH2

[8] = target: T1, full-length human recombinant wild-type …; test: competition ELISA: antibody pre-incubated with titrated synuclein species in solution; unbound antibody captured on WT PFF-coated plate (CPS); remark: listed apart in the source
[9] = target: T2, full-length human recombinant wild-type …; test: as above; remark: listed apart in the source
[10] = target: T3, α-synuclein inducing species in brain …; test: cell-based or functional assay; remark: listed apart in the source
[11] = target: T1, full-length human recombinant wild-type …; test: competition ELISA: antibody pre-incubated with titrated synuclein species in solution; unbound antibody captured on WT PFF-coated plate (CPS); remark: listed apart in the source
[12] = target: T2, full-length human recombinant wild-type …; test: as above; remark: listed apart in the source
[13] = target: T1, full-length human recombinant wild-type …; test: as above; remark: listed apart in the source

T2 sequence (Q16143 whole entry): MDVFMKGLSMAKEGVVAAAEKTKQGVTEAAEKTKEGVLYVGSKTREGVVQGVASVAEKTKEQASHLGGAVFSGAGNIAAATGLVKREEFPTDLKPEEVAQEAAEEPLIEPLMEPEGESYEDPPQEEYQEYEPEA

Fold Antibody 1, immunodepletion of MSA 01-03 lysate [4]: 0.9 fold
IC50 (nM), immunodepletion of pS129-inducing activity from MSA 01-03 lysate [4]: 2.7 nM
Fold Antibody 1, immunodepletion of MSA 12-18 lysate [5]: 2.5 fold
IC50 (nM), immunodepletion of pS129-inducing activity from MSA 12-18 lysate [5]: 2.21 nM
Fold Antibody 1, immunodepletion of PFF [6]: 1.1 fold
IC50 (nM), immunodepletion of pS129-inducing activity from PFF [6]: 0.028 nM
Fold Antibody 1, immunodepletion of MSA 04-51 lysate [7]: 1.1 fold
IC50 (nM), immunodepletion of pS129-inducing activity from MSA 04-51 lysate [7]: 0.41 nM
binding result (119-129): no binding
binding result (122-132): no binding
binding result (130-140): binds
binding result (120-130): no binding
binding result (123-133): no binding
binding result (129-139): binds
binding result (128-138): no binding
binding result (117-127): no binding
binding result (116-126): no binding
binding result (121-131): no binding
binding result (124-134): no binding
binding result (118-128): no binding
binding result (125-135): no binding
B2: 44B11 (antibody, V domains shown)
VH: EVQLVESGGGLIQPGGSLRLSCAASGFTVSSKYMSWVRQAPGKGLEWVSVMYSGGRRYYADSVKGRFTISRDNSKNTLYLQMNSLRAEDTAVYYCARGDRGDYWGQGTLVTVSS
VL: EIVLTQSPATLSLSPGERATLSCRASQSVSSYLAWYQQKPGQAPRLLIYDASNRATGIPARFSGSGSGTDFTLTISSLEPEDFAVYYCQQRSNWPITFGQGTRLEIK

IC50 (nM), immunodepletion of pS129-inducing activity from MSA 12-18 lysate [10]: 0.66 nM
B6: 7A10-Vh-T93A-hHC-IgG1.3f (antibody, V domains shown)
VH: QVQLQESGPGLVKPSETLSLTCTVSGGSVSSGRYYWSWIRQPPGKGLEWIGYIYYSGRTKYNPSLKSRVTISVDTSKNQFSLKLSSVTAADTAVYYCARERGYLDYWGQGTLVTVSS
VL: not shown

IC50 (nM), immunodepletion of pS129-inducing activity from MSA 01-03 lysate [4]: 0.55 nM
IC50 (nM), immunodepletion of pS129-inducing activity from MSA 12-18 lysate [5]: 0.63 nM
IC50 (nM), immunodepletion of pS129-inducing activity from PFF [6]: 0.057 nM
IC50 (nM), immunodepletion of pS129-inducing activity from MSA 04-51 lysate [7]: 0.17 nM
B7: 36A3 (antibody, V domains shown)
VH: B6 VH with R33S, K77R, Y103W, Y106P
VL: not shown

IC50 (nM), immunodepletion of pS129-inducing activity from MSA 12-18 lysate [10]: 51 nM
B8: 7A10-Vh-R56S-K58N-T93A-IgG1.3f (antibody, name in Kabat numbering, V domains shown)
VH: B6 VH with R58S, K60N
VL: not shown

IC50 (nM), immunodepletion of pS129-inducing activity from MSA 12-18 lysate [10]: 4.65 nM
B9: 7A10-Vh-K58Y-T93A-hHC-IgG1.3f (antibody, name in Kabat numbering, V domains shown)
VH: B6 VH with K60Y
VL: not shown

IC50 (nM), immunodepletion of pS129-inducing activity from MSA 12-18 lysate [10]: 9 nM
B10: 7A10-Vh-R56S-T93A-hHC-IgG1.3f (antibody, name in Kabat numbering, V domains shown)
VH: B6 VH with R58S
VL: not shown

Continued, binder first:

B1: 11H11-1 (antibody, V domains shown)
VH: EVQLVQSGGGLVHPGGSLRLSCAGSGFTFSSYAMHWVRQAPGKGLEWVSAIGTGGGTYYADSVKGRFTISRDNAKNSLYLQMNSLRAEDMAVYYCARGNWEFDYWGQGTLVTVSS
VL: not shown
notes: shares its VH with 11H11-2
EC50 [1]: 5.75 µM
EC50 (rat αSyn 111-140 peptide): 5.71 µM
binding result [2]: binds
binding result [3]: binds
IC50 (nM), immunodepletion of pS129-inducing activity from MSA 01-03 lysate [4]: 2.6 nM
IC50 (nM), immunodepletion of pS129-inducing activity from MSA 12-18 lysate [5]: 0.76 nM
IC50 (nM), immunodepletion of pS129-inducing activity from PFF [6]: 0.066 nM
IC50 (nM), immunodepletion of pS129-inducing activity from MSA 04-51 lysate [7]: 0.15 nM

B3: 15A5 (antibody, V domains shown)
VH: B6 VH with R33S, S37C, Y103R, L104F
VL: not shown
IC50 (nM), immunodepletion of pS129-inducing activity from MSA 01-03 lysate [4]: 0.59 nM
IC50 (nM), immunodepletion of pS129-inducing activity from MSA 12-18 lysate [5]: 0.61 nM
IC50 (nM), immunodepletion of pS129-inducing activity from PFF [6]: 0.042 nM
IC50 (nM), immunodepletion of pS129-inducing activity from MSA 04-51 lysate [7]: 0.12 nM
binding result [8]: binds
binding result [9]: binds

B4: 7A10-hIgG1.3f (antibody, V domains shown)
VH: B6 VH with A98T
VL: not shown
IC50 (nM), immunodepletion of pS129-inducing activity from MSA 12-18 lysate [10]: 0.52 nM

B5: 21A3 (antibody, V domains shown)
VH: B6 VH with S31N, G32R, R33N, L84V, Y103R, L104F
VL: not shown
notes: also called 21A03
IC50 (nM), immunodepletion of pS129-inducing activity from MSA 01-03 lysate [4]: 0.37 nM
IC50 (nM), immunodepletion of pS129-inducing activity from MSA 12-18 lysate [5]: 0.16 nM
IC50 (nM), immunodepletion of pS129-inducing activity from PFF [6]: 0.061 nM
IC50 (nM), immunodepletion of pS129-inducing activity from MSA 04-51 lysate [7]: 0.05 nM
binding result [11]: binds
binding result [12]: binds

B11: 7A10 (antibody, V domains shown)
VH: B6 VH with A98T
VL: not shown
binding result [13]: binds
IC50 (nM), immunodepletion of pS129-inducing activity from MSA 01-03 lysate [4]: 0.28 nM
IC50 (nM), immunodepletion of pS129-inducing activity from MSA 12-18 lysate [5]: 0.39 nM
IC50 (nM), immunodepletion of pS129-inducing activity from PFF [6]: 0.018 nM
IC50 (nM), immunodepletion of pS129-inducing activity from MSA 04-51 lysate [7]: 0.04 nM

B12: 21A3-Vh-V82L-hHC-IgG1.3f (antibody, V domains shown)
VH: B6 VH with S31N, G32R, R33N, Y103R, L104F
VL: not shown
IC50 (nM), immunodepletion of pS129-inducing activity from MSA 12-18 lysate [10]: 0.11 nM

B13: 21A3-hIgG1.3f (antibody, V domains shown)
VH: B6 VH with S31N, G32R, R33N, L84V, Y103R, L104F
VL: not shown
IC50 (nM), immunodepletion of pS129-inducing activity from MSA 12-18 lysate [10]: 0.19 nM
